Two molecules from article PMC12977500, “Mechanistic insights into SteAB regulation of cell wall hydrolase RipA in Mycobacterium tuberculosis” (mBio, 2026) can be followed below.

Series [1] deals with T1, MtRipACAT (catalytic domain of M. tuberculosis RipA, residues 261–472) (Mycobacterium tuberculosis, UniProt O53168 261-472).
T1 construct: also called MtRipA catalytic domain; NlpC/P60 catalytic domain; not shown: His6, N-terminal, cleaved; SUMO, N-terminal, cleaved
T1 sequence: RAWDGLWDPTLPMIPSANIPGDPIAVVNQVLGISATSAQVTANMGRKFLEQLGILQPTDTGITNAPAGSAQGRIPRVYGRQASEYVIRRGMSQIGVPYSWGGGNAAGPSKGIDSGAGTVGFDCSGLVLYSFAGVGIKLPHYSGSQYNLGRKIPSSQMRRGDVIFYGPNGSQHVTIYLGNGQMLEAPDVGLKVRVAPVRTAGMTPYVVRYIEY
The series can be described thus: BLI; biotinylated MtRipACC immobilised on streptavidin biosensors; Octet-Red384, 25°C; 25 mM HEPES pH 7.5, 150 mM NaCl, 5% glycerol, 1 mg/mL BSA, 0.05% Tween 20; MtSteB 200–3.125 μM or MtRipACAT 80–1.25 μM; steady-state signal, one-site binding model; apparent Kd. As to conditions: both partners purified.

Series [2] concerns the molecule itself. The series can be described thus: SEC; analytical SEC, Superdex-200 3.2/300, 25 mM Hepes pH 8, 150 mM NaCl; calibrated with BioRad gel filtration standard. In general terms: Size exclusion chromatography separates by hydrodynamic size, large species first.

B1: MtRipACC (coiled-coil domain of M. tuberculosis RipA, residues 40–240) (domain or fragment)
chain: DPQTDTIAALIADVAKANQRLQDLSDEVQAEQESVNKAMVDVETARDNAAAAEDDLEVSQRAVKDANAAIAAAQHRFDTFAAATYMNGPSVSYLSASSPDEIIATVTAAKTLSASSQAVMANLQRARTERVNTESAARLAKQKADKAAADAKASQDAAVAALTETRRKFDEQREEVQRLAAERDAAQARLQAARLVAWSSE
modifications: biotin (EZ-Link NHS-PEG4-Biotin, 20 molar excess) in the BLI assays only
notes: Biotinylated and immobilised on streptavidin sensors for BLI; not biotinylated in the crystal of the complex; also called RipA coiled-coil domain; CC domain of RipA; not shown: His6, N-terminal, cleaved; SUMO, N-terminal, cleaved
Consider B1, for which the Kd in series [1] was found to be 6.8 ± 1.4 µM.

B2: CgSteBΔTM (soluble SteB of Corynebacterium glutamicum) (domain or fragment)
chain: APNLPENIDPNAPTSAELVEAETLAEVNAVQADQADSIIDHIVEDVVAGTLTDRPVLVMRTADAEESDVADVSWLLQQAGAINAGSITLEENFFSQDGADQLKSIVANTLPAGAQLSETQLDPGTHAGEALGAALLLNPETGEPLASTAERGLLLNVLRDNGYISYEDGTILPGQVIVMITGDSDGSGDGAFAAETQSLFARALDAQGSGVVVAGRIHTAADTGVIGRLRANPDAAENVSTIDSVNRTWGKMATVLSVREELAGRSGAFGSAASADAASPSLDGTAAAPAQ
notes: The cloning of this construct is not described here; source: E. coli BL21 (DE3), purified ("pure protein sample")
Broadly, the stoichiometry N is a count of units in the complex or per binding partner. Turning to B2, the “stoichiometry N” value in series [2] was determined as 2.
